# Measurements reported in patent publication US20210071139A1 (published 2021).
# B1: TOX (other)
# chain: MDVRFYPPPAQPAAAPAAPCLGPSPCLDPYYCNKFDGENMYMSMTEPSQDYVPASQSYPGPSLESEDFNIPPITPPSLPDHSLVHLNEVESGYHSLCHPMNHNGLLPFHPQTMDLPEITVSNMLGQDGALLSNSISVMQEIGNAEGAQYSSHPQMAAMRPRGQPTDIRQQASMMQPGQLTTINQSQLSAQLGLNMGGTNVAHNSPSPPGSKSATPSPSSSVHEDECEDASKINGGEKRPASDMGKKPKTPKKKKKKDPNEPQKPVSAYALFFRDTQAAIKGQNPNATFGEVSKIVASMWDGLGEEQKQVYKKKTEAAKKEYLKQLAAYRASLVSKSYTDPVDVKTSQPPQLVNSKPSVFHGPSQAHSALYLSSHYHQQPGMTPQLTAMHPSLPRNIAPKPNNQMPVTVSIANMAVSPPPPLQISPPLHQHLSMQQHQSLAMQQPLGSQLPMQVQTALHSPTMQQGFTLQPDYQTIINPTSTAAQVVTQAMEYVRSGCRNPPPQPVDWSTDYCSSGGMQRDKALYLT
# notes: Bait of the immunoprecipitations (anti-TOX ab155768, Abcam); also called TOX protein
# Molecular target: histone H4 (UniProt P62806 2-103)
# Assay: IP with anti-TOX from EL4 lysate, Western blot (FIG. 60L)
binder,measurement,value
B1,binding result,binds
